Literature values, collected in paper PMC2908543, “Uropathogenic Escherichia coli Modulates Immune Responses and Its Curli Fimbriae Interact with the Antimicrobial Peptide LL-37” (PLoS Pathogens, 2010).

Test system: Pseudomonas aeruginosa
Settings: ref [47]
Description: Biofilm inhibition by antimicrobial polypeptides has previously been described for Pseudomonas aeruginosa. […] A direct interaction with biofilm components was not investigated in these studies. The effect was rather related to an influence of LL-37 on the bacterial gene expression profile or an influence of lactoferrin on free iron. These and our findings stress an important anti-biofilm role of antimicrobial polypeptides in host defense. It is likely that the anti-biofilm activit ...

B1: lactoferrin (protein, UniProt P02788 20-710, looked up)
Lactotransferrin: GRRRSVQWCAVSQPEATKCFQWQRNMRKVRGPPVSCIKRDSPIQCIQAIAENRADAVTLDGGFIYEAGLAPYKLRPVAAEVYGTERQPRTHYYAVAVVKKGGSFQLNELQGLKSCHTGLRRTAGWNVPIGTLRPFLNWTGPPEPIEAAVARFFSASCVPGADKGQFPNLCRLCAGTGENKCAFSSQEPYFSYSGAFKCLRDGAGDVAFIRESTVFEDLSDEAERDEYELLCPDNTRKPVDKFKDCHLARVPSHAVVARSVNGKEDAIWNLLRQAQEKFGKDKSPKFQLFGSPSGQKDLLFKDSAIGFSRVPPRIDSGLYLGSGYFTAIQNLRKSEEEVAARRARVVWCAVGEQELRKCNQWSGLSEGSVTCSSASTTEDCIALVLKGEADAMSLDGGYVYTAGKCGLVPVLAENYKSQQSSDPDPNCVDRPVEGYLAVAVVRRSDTSLTWNSVKGKKSCHTAVDRTAGWNIPMGLLFNQTGSCKFDEYFSQSCAPGSDPRSNLCALCIGDEQGENKCVPNSNERYYGYTGAFRCLAENAGDVAFVKDVTVLQNTDGNNNEAWAKDLKLADFALLCLDGKRKPVTEARSCHLAMAPNHAVVSRMDKVERLKQVLLHQQAKFGRNGSDCPDKFCLFQSETKNLLFNDNTECLARLHGKTTYEKYLGPQYVAGITNLKKCSTSPLLEACEFLRK
notes: antimicrobial polypeptide
bacterial surface motility mediated by type IV pili: increased bacterial surface motility
